B1: MATN2 (parent)
chain: FIVDILQFLDIGPDVTRVGLLQYG
B2: SNURF (parent)
chain: QVPVVDFQAELRQAFLAETPRGG
B3: CROP (parent)
chain: VFGRGDNISDVSKFLEDDKWMEE

Variants of: B1
Experiment: protein stability index of a GFP-peptide fusion (GPS, HEK-293T) (PSI 1-6); higher = more stable
Conditions: c terminus: a fixed tail appended
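Note: lentivirally expressed fusions sorted by FACS into six bins by GFP to DsRed ratio, PSI derived from sequencing read proportions per bin multiplied by bin number.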

Protein stability index of substitutions, site by site:
I11: M 3.73; N 2.49; Q 2.77; S 2.12; T 2.8; Y 3.28
G12: C 2.76; D 2.56; F 1.9; H 3.69; I 2.79; L 2.63; M 2.11; N 3.36; Q 2; R 4.05; S 2.61; T 3.93
P13: A 3.91; E 2.72; F 1.91; H 2.73; I 2.79; K 2.15; M 2.4; N 3.21; Q 4; S 2.69; V 2.93; W 2.61
D14: A 2.27; E 4.71; H 2.17; I 3.22; N 3.04; P 3.06; S 2.67; Y 2.6
V15: A 2.88; D 4.47; F 3.1; I 2.16; L 1.88; M 4.35; N 2.49; P 3.2; W 2.06; Y 3.39
T16: D 2.7; G 2.19; L 3.03; M 1.06; P 2.42; R 2.33; W 3.52; Y 4.05
R17: A 3.59; C 2.86; F 2.23; G 2.07; I 2.77; L 3.37; M 2.05; N 2.75; S 1.03; V 3.47; Y 3.22
V18: C 2.58; D 2.04; F 3.25; K 2.05; M 2.55; N 2.16; P 3.38; Q 1.8; R 1.82; S 3.5
G19: A 2.26; C 1.32; D 3.21; E 3.93; H 3.51; I 2.67; L 3.83; M 3.24; P 2.58; Q 2.7; S 2.33; T 3.15; V 2.69; W 2.62
L20: A 2.25; C 1.87; F 2.92; G 3.72; H 2.86; N 3.71; R 1.79; V 4; W 3.97; Y 3.45
L21: A 2.8; C 3.73; E 3.73; F 2.62; G 3.3; H 2.01; I 2.79; K 2.13; P 4.3; S 2.57; T 2.95; W 3.27
Q22: A 2.48; F 3.25; G 3.55; K 2.98; M 2.53; N 1.93; S 3.08; V 3.57; Y 4.14
Y23: L 1.84; M 2.75; Q 2.29; R 3.61; T 3.99
G24: A 2.27; E 1.99; F 3.31; H 3.37; I 3.62; K 1.81; L 4.05; R 2.18; W 3.04

Variants of: B2
Experiment: as above
Conditions: c terminus: native

Protein stability index, by site and new letter:
Q1: N 2.49; S 2.31; T 3.88
V2: G 2.61; K 3.98; Q 1.5
P3: D 3.02; Q 4.82; V 3.01
V4: A 3.33; F 3.43; L 2.5; M 3.48; T 2.69; W 2.09
V5: A 2.08; D 1.7; F 2.39; H 3.52; I 4.13; L 3.11; S 4.05; T 2.34; W 3.5
D6: C 4.03; E 4.69; N 3.2; R 2.21
F7: S 3.5; T 4.49; W 2.9
Q8: C 3.49; K 5.19; L 3.47; T 3.31; V 1.43; Y 2.98
A9: D 2.47
E10: A 1.34; D 2.15; F 4; K 2.48; M 3.19; P 2.93; Q 2.59
L11: A 3.6; D 2.77; F 3.51; I 2.03; K 4.47; P 3.34; R 3.83; S 2.27
R12: E 2.54; M 3.51; N 2.92; P 2.89; Q 3.27; Y 3.86
Q13: A 2.68; C 1.71; D 2.15; G 4.32; M 2.42; S 3.53; Y 2.73
A14: D 2.99; E 3.09; F 2.58; H 2.3; K 3.05; L 3.5; P 2.12
F15: E 2.82; G 3.47; K 2.48; R 1.95; T 3.19; W 2.83; Y 1.94
L16: A 2.42; F 2.03; H 2.13; P 3.02; W 1.96; Y 3.57
A17: I 3.76; K 3.45; S 2
E18: C 3.41; F 1.67; P 3.59; S 2.02
T19: A 3.59; C 3.31; F 2.29; K 3.17; R 1.63
P20: A 3; C 1.59; F 2.27; I 3.38; K 2.19; W 3.74; Y 3.23
R21: A 4.22; K 1.78; L 2.66; N 2.15; P 3.47
G22: C 1.99; D 4.09; E 3.26; F 2.29; H 2.79; I 2.95; K 2.04; L 2.66; M 1.95; N 2.5; R 2.73; S 1.94; T 2.57; V 3.34; Y 2.51
G23: A 2.38; C 1.66; D 3.97; E 1.85; F 2.27; H 1.77; I 2.06; K 4.37; L 3.09; M 1.71; N 1.92; Q 2.42; S 3.16; T 3.93; V 2.52; W 1.5; Y 3.06

Variants of: B3
Experiment: as above
Conditions: c terminus: native

Protein stability index, by site and new letter:
V1: A 2.11; C 1.97; D 3.13; E 2.97; G 3.63; H 2.59; I 1.43; K 2.73; L 2.48; M 1.84; N 2.25; P 2.76; Q 3; R 2.37; S 2.11; W 3.69
F2: A 2.88; C 3.7; D 3.87; E 4.33; G 2.79; H 3.4; I 1.8; K 2.16; L 1.97; N 2.87; P 2.66; Q 2.99; S 2.83; T 3.29; V 2.64; W 2.85; Y 1.66
G3: A 2.83; C 2.48; D 2.21; F 1.44; H 1.88; K 1.44; M 1.51; P 2.84; Q 2.11; R 2.1; S 1.82; T 2.07; V 1.51; W 2.36
R4: A 2.43; C 2.66; D 2.4; E 2.42; F 2.19; G 2.16; H 2.19; I 1.95; K 2.41

From the supplement of paper PMC10567573
